Values of other authors, collected in article PMC3043165.

Legend:
[1] = molecular target: integrin αIIbβ3 (Homo sapiens) (UniProt P08514)
[2] = molecular target: integrin αvβ5 (Homo sapiens) (UniProt P06756)
Sequence of integrin αvβ5 (Homo sapiens) (P06756 31-992, chain 1 of 2): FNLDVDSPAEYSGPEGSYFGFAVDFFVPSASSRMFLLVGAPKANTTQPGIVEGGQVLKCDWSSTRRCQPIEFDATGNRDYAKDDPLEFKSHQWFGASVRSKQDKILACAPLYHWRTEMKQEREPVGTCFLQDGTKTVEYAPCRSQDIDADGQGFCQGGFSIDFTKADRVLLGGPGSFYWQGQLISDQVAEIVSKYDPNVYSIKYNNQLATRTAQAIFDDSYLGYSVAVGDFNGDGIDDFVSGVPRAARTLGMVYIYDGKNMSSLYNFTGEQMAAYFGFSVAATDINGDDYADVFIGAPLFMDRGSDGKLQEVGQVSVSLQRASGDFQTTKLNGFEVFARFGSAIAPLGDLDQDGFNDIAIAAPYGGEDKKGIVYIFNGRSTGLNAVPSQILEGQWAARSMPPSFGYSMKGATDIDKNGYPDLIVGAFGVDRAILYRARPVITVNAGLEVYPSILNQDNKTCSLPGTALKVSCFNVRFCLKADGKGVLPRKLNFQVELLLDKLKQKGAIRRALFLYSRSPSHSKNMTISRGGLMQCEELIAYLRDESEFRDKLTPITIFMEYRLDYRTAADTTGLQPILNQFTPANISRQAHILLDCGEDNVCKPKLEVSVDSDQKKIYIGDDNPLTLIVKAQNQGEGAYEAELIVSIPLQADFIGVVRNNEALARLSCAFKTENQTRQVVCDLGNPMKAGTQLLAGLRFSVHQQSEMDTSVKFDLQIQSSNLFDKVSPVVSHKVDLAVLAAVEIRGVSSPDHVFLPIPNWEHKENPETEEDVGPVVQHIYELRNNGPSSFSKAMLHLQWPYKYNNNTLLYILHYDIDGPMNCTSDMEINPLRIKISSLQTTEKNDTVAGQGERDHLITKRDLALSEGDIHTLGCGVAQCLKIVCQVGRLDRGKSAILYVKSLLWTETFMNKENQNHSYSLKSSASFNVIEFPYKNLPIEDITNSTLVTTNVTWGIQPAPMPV
Sequence of integrin αvβ5 (Homo sapiens) (P18084 24-719, chain 2 of 2, further chain): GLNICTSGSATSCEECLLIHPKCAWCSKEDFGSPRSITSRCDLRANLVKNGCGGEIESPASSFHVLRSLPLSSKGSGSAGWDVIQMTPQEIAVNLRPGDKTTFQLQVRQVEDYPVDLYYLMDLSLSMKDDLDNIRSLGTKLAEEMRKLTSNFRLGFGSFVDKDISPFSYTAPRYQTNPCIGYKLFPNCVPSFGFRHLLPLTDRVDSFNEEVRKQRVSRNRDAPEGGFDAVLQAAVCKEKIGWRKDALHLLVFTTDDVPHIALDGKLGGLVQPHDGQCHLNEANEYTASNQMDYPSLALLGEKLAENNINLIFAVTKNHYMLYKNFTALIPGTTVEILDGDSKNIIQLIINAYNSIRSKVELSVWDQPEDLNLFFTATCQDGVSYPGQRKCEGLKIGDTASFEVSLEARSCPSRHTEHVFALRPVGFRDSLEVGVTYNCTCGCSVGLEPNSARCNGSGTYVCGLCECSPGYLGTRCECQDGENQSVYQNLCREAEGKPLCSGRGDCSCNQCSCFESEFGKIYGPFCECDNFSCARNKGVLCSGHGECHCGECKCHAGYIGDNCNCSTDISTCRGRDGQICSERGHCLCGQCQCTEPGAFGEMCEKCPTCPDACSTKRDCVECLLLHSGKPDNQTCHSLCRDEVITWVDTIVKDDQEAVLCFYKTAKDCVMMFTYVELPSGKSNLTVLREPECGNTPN

**Q.** For c(RGDyK), which IC50 [1] is on record?
**A.** 0.11 nM

**Q.** With GRGDS peptide as the substance, how does the IC50 [2] read?
**A.** > 5 µM
